# Reference: patent US20140100836A1 (ETH ZURICH, published 2014)
# Non-standard residues stand in square brackets, D forms with d. Phe(4-NO2) = N[C@@H](Cc1ccc([N+](=O)[O-])cc1)C(=O)O
# B1: oligosaccharyltransferase (OST) PgIB from Campylobacter lari, full length, with C-terminal decahistidine affinity tag (expressed from pSF2, purified in DDM and … (enzyme)
# chain: MELQQNFTDNNSIKYTCILILIAFAFSVLCRLYWVAWASEFYEFFFNDQLMITTNDGYAFAEGARDMIAGFHQPNDLSYFGSSLSTLTYWLYSILPFSFESIILYMSTFFASLIVVPIILIAREYKLTTYGFIAALLGSIANSYYNRTMSGYYDTDMLVLVLPMLILLTFIRLTINKDIFTLLLSPIFIMIYLWWYPSSYSLNFAMIGLFGLYTLVFHRKEKIFYLAIALMIIALSMLAWQYKLALIVLLFAIFAFKEEKINFYMIWALIFISISILHLSGGLDPVLYQLKFYVFKASDVQNLKDAAFMYFNVNETIMEVNTIDPEVFMQRISSSVLVFILSFIGFILLCKDHKSMLLALPMLALGFMALRAGLRFTIYAVPVMALGFGYFLYAFFNFLEKKQIKLSLRNKNILLILIAFFSISPALMHIYYYKSSTVFTSYEASILNDLKNKAQREDYVVAWWDYGYPIRYYSDVKTLIDGGKHLGKDNFFSSFVLSKEQIPAANMARLSVEYTEKSFKENYPDVLKAMVKDYNQTSAKDFLESLNDKNFKFDTNKTRDVYIYMPYRMLRIMPVVAQFANTNPDNGEQEKSLFFSQANAIAQDKTTGSVMLDNGVEIINDFRALKVEGASIPLKAFVDIESITNGKFYYNEIDSKAQIYLLFLREYKSFVILDESLYNSAYIQMFLLNQYDQDLFEQVTNDTRAKIYRLKR
# notes: Residues 283-306, 605-607 and the His tag are disordered in the structure; also called C. lari PgIB; PglB
# Target: T1, acceptor hexapeptide Ac-DQNATF{4NO2}-NH2 (SMILES CC(=O)N[C@@H](CC(=O)O)C(=O)N[C@@H](CCC(N)=O)C(=O)N[C@@H](CC(N)=O)C(=O)N[C@@H](C)C(=O)N[C@H](C(=O)N[C@@H](Cc1ccc([N+](=O)[O-])cc1)C(N)=O)[C@@H](C)O)
# T1 construct: also called DQNATF{pNO2}; acceptor peptide
# T1 peptide: Ac-DQNAT[Phe(4-NO2)]-NH2
# Assay: calculated from the X-ray co-crystal structure with areaimol
protein,measurement,value
B1,contact surface of the peptide buried at the interface of the TM and periplasmic domains,~80%
